The test concerns the target T1, Human recombinant PFKP protein (His and GST tag) (human, UniProt Q01813 1-784).
T1 construct: Phosphofructokinase, platelet isoform (PFKP), human, recombinant; also called human PFKP protein; source: bought: Sino Biological (CAT# 15003-H20B)
T1 sequence (looked up): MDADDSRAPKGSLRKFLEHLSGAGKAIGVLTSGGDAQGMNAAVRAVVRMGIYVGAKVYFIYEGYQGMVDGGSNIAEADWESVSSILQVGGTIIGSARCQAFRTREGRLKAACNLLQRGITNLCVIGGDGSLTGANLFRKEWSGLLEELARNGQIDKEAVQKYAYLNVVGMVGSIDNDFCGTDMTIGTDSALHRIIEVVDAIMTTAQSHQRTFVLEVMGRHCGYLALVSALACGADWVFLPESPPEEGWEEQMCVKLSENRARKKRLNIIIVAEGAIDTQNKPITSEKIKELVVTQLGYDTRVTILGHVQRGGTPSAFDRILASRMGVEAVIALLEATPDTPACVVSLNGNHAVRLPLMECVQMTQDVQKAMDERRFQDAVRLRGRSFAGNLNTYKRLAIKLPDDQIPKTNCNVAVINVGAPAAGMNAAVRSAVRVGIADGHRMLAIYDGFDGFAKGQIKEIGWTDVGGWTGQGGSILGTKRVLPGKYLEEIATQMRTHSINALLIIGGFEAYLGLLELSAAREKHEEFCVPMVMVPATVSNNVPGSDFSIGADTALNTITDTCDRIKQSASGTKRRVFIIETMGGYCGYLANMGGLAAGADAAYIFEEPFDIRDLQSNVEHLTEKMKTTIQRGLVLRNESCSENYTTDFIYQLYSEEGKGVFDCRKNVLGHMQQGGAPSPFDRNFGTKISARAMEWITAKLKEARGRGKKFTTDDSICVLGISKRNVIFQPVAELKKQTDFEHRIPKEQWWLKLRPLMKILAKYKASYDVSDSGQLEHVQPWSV
Kind of test: SPR; Biacore S200; human SIRT2 immobilised on CM5 chip by amine coupling (10 mM sodium acetate pH 4.0 with 20 uM NAD+); PFKP injected at 15.62-1000 nM, contact time 120 s, 15 uL/minute; running buffer HBS-P+ pH 7.4; steady state equilibrium binding model. The note with it: both partners purified.

This note sets out measurements from paper PMC9972587, “SIRT2-PFKP interaction dysregulates phagocytosis in macrophages with acute ethanol-exposure” (Frontiers in Immunology, 2022).

B1: Recombinant human SIRT2 protein (enzyme, UniProt Q8IXJ6 1-389, looked up)
chain: MAEPDPSHPLETQAGKVQEAQDSDSDSEGGAAGGEADMDFLRNLFSQTLSLGSQKERLLDELTLEGVARYMQSERCRRVICLVGAGISTSAGIPDFRSPSTGLYDNLEKYHLPYPEAIFEISYFKKHPEPFFALAKELYPGQFKPTICHYFMRLLKDKGLLLRCYTQNIDTLERIAGLEQEDLVEAHGTFYTSHCVSASCRHEYPLSWMKEKIFSEVTPKCEDCQSLVKPDIVFFGESLPARFFSCMQSDFLKVDLLLVMGTSLQVQPFASLISKAPLSTPRLLINKEKAGQSDPFLGMIMGLGGGMDFDSKKAYRDVAWLGECDQGCLALAELLGWKKELEDLVRREHASIDAQSGAGVPNPSTSASPKKSPPPAKDEARTTEREKPQ
notes: Sirtuin 2 (SIRT2), human, recombinant; also called human SIRT2 ligand; source: bought: Sigma-Aldrich (CAT# SRP0116)
On to B1, for which the Kd turned out to be 100 nM.

For orientation: Kd means the concentration at which binding is half-saturated.
